Laboratory results from the DeepSol protein solubility set.

test: soluble on expression in E. coli; label from the status in PepcDB or PDB records

| Sequence | soluble on expression in E. coli |
| --- | --- |
| MGSDKIHHHHHHLKILKFQIKDFRNLKKIEYQPSPGLNIFYGENAQGKTNILEALYYLATGNSFRSNKEKTLISYESSSLQVQARYNHQERIIDSSITYGLDGKVFRINKKRASYNHTDRLRIILFSPDDLYLVKGAPYKRRFFLDFLLGQISNEYLFKLDNYRKILKKRNLLLKKEETNSRSFAIINDIFMDLAAQLLISRLNLINVLDEAIQEIYPQINNDGGQLKIRYALSFPVDSGKINLDILKDSLKKQVESETEKEKKRKTTLLGPHLDDMHIYLNEQMARLFASQGQQRNIVICLKLAEIMTFRKIKGFFPIFLLDEVLAELDDSRSNKLLKYLAQSPFQSFLTSVKLEKFEVMDASIFLVKDGCLLGKE | not soluble |
| MSLIILTRDDEPRIFTPDSDAASPALHSTSPLPDPASASPLHREEKILPKVCNIVSCLSFSLPASPTDSGLASPTIITREGQQFWAKCLIWKYQLYLHGLHKKSDGRRDKQISASPST | soluble |
| LTQPLDHRHPEKGSFRQRVIVGHVGYDRPTVIVTEGYGAGYALRPTYREELSELFDANMIFVEHRYFLESTPEPCDWQYLTAENSAEDLHAVTTAFKTLYPGKWISTGISKGGQTSLLYRVFFPDDVDVSVPYVAPLCYAREDGRHEPFLRRVGTEADRKKIEDFQLEVLKRKARLLPRFEKMCTEKNYTFRAPLEEIYDFCVLEYSFSIWQWGTDIRSIPETSASDDTLLDHLLAISGPSYFIVDSPTLSFFVQAARELGYYGYDIAPFKPYLSIKTSKDYLRRLMLPEDMRKMKFDKTLSNKIVRFLKKNDPKMIFIYGQNDPWTAAGVTWLKNKKNIHVFVEPGGSHLARIGTMSEDQKQKVMSLLRGWLEE | not soluble |
| GAMDPEFQQSKVAPSSAASRPVLSSRSDQSQKNEVFLDVVERLSVLIASNGSLLKVDVQGEIRLKSFLPSGSEMRIGLTEEFSVGKSELRGYGPGIRVDEVSFHSSVNLDEFESHRILRLQPPQGELTVMRYQLSDDLPSPLPFRLFPSVQWDRGSGRLQVYLKLRCDLLSKSQALNVRLHLPLPRGVVSLSQELSSPEQKAELAEGALRWDLPRVQGGSQLSGLFQMDVPGPPGPPSHGLSTSASPLGLGPASLSFELPRHTCSGLQVRFLRLAFRPSGNANPHKWVRHLSHSDAYVIRI | soluble |
| MPLPIAAPPILASTLTLLLATTPTAAALTPEQHAAALVAQMTRQEKIAQTMNAAPAIPRLGIPAYDWWSEGLHGIARNGYATVFPQAIGLAASWNTDLLQHVGTVTSTEARAKFNLTGGPGKDHPRYAGLTLWSPNINIFRDPRWGRGMETYGEDPYLTSQLAVSFIRGLQGDTPDHPRTIATPKHFAVHSGPEQGRHSFDVDVSAYDLEATYTPAFRAAIVDGHAGSVMCAYNALHGTPACASDWLLNTRLRNDWGFNGFVVSDCDAIEDMTRFHFFRQDNASASAAALKSGNDLNCGNTYRDLNQAIARGDIDESTLDQALIRLFTARQRLGTLQPREHDPYAAIGIK | not soluble |
| MAHHHHHHMPARGCAPVDEQIAGTDTEGRRYRSVEEMWGRELQGNLYDAKTGWYGKSLQYWGSVPATVSGVLGGMDHVHDIDIRDSRAFICCLPERGTTRALDCGAGIGRITKSLLCHLYDVTDLLEPVASMLEKAKEELEGFPVGDFFQSSMETAKLQPKTYDLIVIQWAAIYLTDEDFVAFLVRCKEALTPKGYIFFKENCASDDEFIVDKEDSSLTRSDKHYKRIFAAAGIEVVKEAMQGDWPDDLLKVKMYALR | soluble |
| MGSDKIHHHHHHMKSWPRPCSWACANPETKGRAYRTMSSSPTISPASDTFAAMTDDHRLAEFIREQASATRVVIQARKRLSGGAIQENWLLDLLIEGGPWAGVRRWVLRSDALSALPASLDREQEFAVLQVVYQAGVKVPRPLWLCRDVRVHGRVFFLMEYVPGSAAGRALSTGAGPQGRAQLATQLGANLARLHQVRPPCATLCFLSVPDSSPALATIDAYRRYLDTLADAYPVLEWGLRWCELHAPRSSTLCLLHRDYRTGNYLASEEGLEAVLDWEFTGWGDPCEDLGWFTARCWRFTRPDLEAGGIGQLEDFLRGYHEVSSLCIERSRLHYWQVMATLRWAVIALQQGQRHLSGEEPSLELALTARLLPELELDILHMTGAEAP | not soluble |
| NPIEMDYIRQIEDVNNRRMKALRPPHRKEVLKAREDDIKDRVQNWMSRENEPRLQRISSELLKEYDSTELVASLLQELVEANDEVE | not soluble |
| GSPGISGGGGGIPSGRGELLVSLCYQSTTNTLTVVVLKARHLPKSDVSGLSDPYVKVNLYHAKKRISKKKTHVKKCTPNAVFNELFVFDIPCESLEEISVEFLVLDSERGSRNEVIGRLVLGATAEGSGGGHWKEICDFPRRQIAKWHMLCDG | soluble |
| MGHHHHHHSHMFLQYYLNEQGDRVYTLKKFDPMGQQTCSAHPARFSPDDKYSRHRITIKKRFKVLMTQQPRPVL | not soluble |
| MSFIAYPCAVPTQRQVPMSPPTTPRILMKLCPIMEIPIIGGPRQNGTYNVFIFDLKIRKFIPHRCSSCAVKILEDHLSPMYASGSVIFMRNEVTQEVEQYVYSFETGGFQQVDYPELVYSAEKFTESSFIVMIENSDGKKVLIERGGNEAVRKLEYRLGKCVEMPKVEVQLLAAEEFDDADPWSDNDSLSSEHLDYNETLPAFKTTFCQDFQMYVLYIITSRGHYEKYIYNQSTSQFEILDCEKCPDTTREVDLLPKYAEFCEEIQAYVIHVFNSFTDRMEQYVFDSKIQGFVEVNQPELKYDSSKDQDPTSSIFFVLKGTTVIMRGAQGRLKKEVYCSIKKHFVEVPNSVIKSFDTQFMEKKQKMDKKKKAKKIKKSKKKASKESQELDVLVEKIRLCDDPFSDGPSCSTSPDIPEDAPDDGMSILKQKFVESLTTLYGGSLPPYVQKELEQI | not soluble |
| AHHHHHHGSKDDIVESVETLVRKGMIEEAIKIVENLQENFDKVIALCKIAELTRDESFLEDAIYFLKKIKDHDNKAIGYGEVAKVYALLGYEEESLELFEEAVKLTKNLNPVDKAITLTILANRLALAGFVDLSLEMFQNAFAEIIELNIELTKKTDLIIQLAEILEASGDALDSENALKFYEMAQDIYKNLKLGQREGIIEKKIELTRTLMHTSYPDIRKLAYEGRFIQALHEIEKRFGGNNVIPLLELTAWAYKTNVFERLKLKEITMEKLSASKLSDEEKFKVVQLLLEIDDTLKAYEIAITLESQELREKALVLIGLKMIDEGEVRFVEEKIFPLLSDEKREEFINFLKNLPIA | soluble |
| MRGSHHHHHHGSDLGRKLLEAARAGQDDEVRILMANGADVNAADNTGTTPLHLAAYSGHLEIVEVLLKHGADVDASDVFGYTPLHLAAYWGHLEIVEVLLKNGADVNAMDSDGMTPLHLAAKWGYLEIVEVLLKHGADVNAQDKFGKTAFDISIDNGNEDLAEILQKLN | soluble |
| MGSDKIHHHHHHMSKANFPTDPALTAIAIAYRNRRMIADEVLPRTPVAKQEFTYLHYNLGEGFTVPNARVGRTSRPNQVEFGATQLTSSTEDFALDAPVPLVDIANKPTNYNPKGRATEQTTNLIELGREVRTANLVFNKKSYANGLTKTLSGNNQWSHDDSKPIADLLSALDTPVMRPNIMVLGQKAATALRTNKSIIKAYNGSLGDEGLVPLEYLKELFELEDIYVGQALINTVNQAKKAVLQQAWGNHCALIYRDRLADTNGGTTFGLTAQFGSREVRDIFDENMGMRGGYNVRVGESVKELITAPDLGFFLENVIA | not soluble |
| MARYSLHAGHNSIVQGANYGNRKEHIMDRQVKDAVVAKLRALGHTVYDDTDEVGTTQAQNLNNIVSKTNSHDVDLVVSFHLNSYDTRANGVEVLYYDQQALSAKIAAQLSKDIGWSNRGAKERKDLYVLSNTKAPAILIELGFIDNEADMAKWNPDKIANSIVYALTGQSGGTTPPSKQNIIQSGAFSPYETPDVMGALTSLKMTANFILQSDGLTYFISEPTSDAQLKGMTDYLDRRGWWYEVK | not soluble |
| MSLNCKQRRYMKILIVDDNEQYRKLLSAIFVDRGWEAIDAPEGNKGMELLREHIPDVILSDIMMPRMDGFQFLRALRTSAFGDIIFIFYTSTYTKASHRDFALSLGADAYIAKPLDPEDIVQALMDILDRKELREGHHHHHH | not soluble |
| SLGVYKARRFSQSTKKLGIHDKVLMAAAEEVMQGIWEADLGSGVIKKRLPLQQGKSGGARTIIFFKSANHVFFYDGWSKSGLSSKGSKEIEDDELAAYKKMANAFLAFSNKQIEDLIETGFLIEVKNER | not soluble |
| MAHHHHHHMKETLVFATARQQFLQHGYAIFSAAIGASLIERLRPALTASTVARARCFIDVPDIESMLKSKSRLSDPLYTKVMARLQRRKYMLRRYREEKKRRKQLKEVVANFLNGREKEDLTGEELWKLSELLAKEAVSVPGKECRSTIKNDPQMLRAINEYRCNVWMTNKELENIVRDPSFWQPIGAIASDVGGVERPVLFADAPMFREPYGGPFGYHCTAPSIGVKTNGNQPLAVSLLVFTHRPDKQKMPLFVLKGSHRFVQDQYLRYVLPNVLSLPFLPMESHIPEQIKRFNFDSSVVGSPIEGGDAIGPGTVVVLNPHLMIGVGANASTERVAVYKLNLIAENAPPFLKAPSWITAWRSLPREVNFASPVVFPPFYDKTMSTTSAR | not soluble |
| MANLCKRVVDLEKYIVKEAPPTVYYIPDFISEAEEEFLLQQVYRAPKPKWTQLSGRRLQNWGGLPNPKGMLAEKLPDWLLEYTEKISALGAFAGKTANHVLVNEYKPGEGIMPHEDGPLYHPTVTTITVGSHTLLDFYRPVCQAEPDAPQTEESRYMLSLLVQRKSLLILQDDMYKCYLHGIRGVCEDVLSEHVVNISSTGAQVGDTLPRSTRVSLTIRHVPKIIRANLFLGKK | not soluble |
| MTARVIALDLDGTLLTPHKTLLPSSLEALSRAKEAGFQLIIVTGRHHVAIHPFYQALALETPAICCNGTYLYDYQAKTVLDADPMPVDKALQLIDLLDEHQIHGLMYVDDAMLYEHPTGHVVRTSRWAQTLPPEQRPTFTQVSSLAQAARDVNAVWKFALTDEDIPRLQRFGQHVEQALGLECEWSWHDQVDIARKGNSKGKRLTQWIEAQGGSMKNVIAFGDNYNDISMLEAAGTGVAMGNADEAVKARADVVIGDNTTDSIAKFIYTHLL | not soluble |
| MKQLSVSLAILCAVATSEAFAADELQQRAQGLFKPVPAKAPTLKGNPASPVKVELGKMLYFDPRLSASHLISCNTCHNVGLGGGDLQATSTGHGWQKGPRNAPTVLNSVFNTAQFWDGRAKDLAEQAKGPVQASVEMNNTPDQVVKTLNSIPDYVALFKKAFPGEKDPVTFDNMAKAIEVFEATLITPDSPFDQYLKGKKKALDGKQTAGLKLFLDKGCVACHGGLNLGGTGYFPFGVVEKPAENILPLGDKGRFAVTNTAKDEYVFRAPSLRNVAITYPYFHSGVVWSLKEAVAVMGSAQFGIKLSDDESEAIAAFLGSLTGKQPKVVYPIMPASTDATPRPRL | soluble |
| MGSDKIHHHHHHMLTSVFGISIKYEAWNHQDSLPVYIAGSYDFHTAYIGNRRCIMLAPTEELATLPALKKQIVKIQQIDNVPVVFELTTVSNYRRKSLIENNIPFITDKQVFLPFIGTMLSDEKEPQKLTGKFVYSTQQLFLFYLYSKKKRLYTSEAGKVLPFTAMTLTRAVKQLETTDLFLVAKDGVNKFIESKYKRDELFEKAKVYLTTPVRKTGYIDKTQVTENMVFAGETALSEKTMLNPSRVVTYAISEKDYDKSLLTDELIDPDKQVRLELWAYNPKQFSEDNSADDISLVLSFKDTNDERIEEAVDELQERRLHE | not soluble |
